From IntAct's records for PubMed 9653157

B1: Cell division control protein 18 (Schizosaccharomyces pombe (strain ATCC 38366 / 972)), P41411 (parent)
chain: MCETPIGCHTPRRCNRFIDSAALIDCTNKTNQREHSPSFSIEIPTTPSRKRTLASSHFQTPTKRIKYELGELQEEKTDLYPNFPAQLKENKKPKLPTTPQTPKTPKRTIQIVTPKSLNRTCNPVPFATRLLQSTPHRQLFPPTPSTPSTPSYNSTAKLSLRKSYRSAGVVGRENEKSIVESFFRQHLDANAGGALYVSGAPGTGKTVLLHNVLDHVVSDYPKVNVCYINCMTINEPKAIFEKIHSKIVKEEILENEDHHINFQCELESHFTQSANELYNPVIIVLDEMDHLIAREQQVLYTLFEWPSRPTSRLILVGIANALDMTDRFLPRLRTKHITPKLLSFTPYTAQEISTIIKARLKTAATTSEKNNPFTPIKSISEVSDDSINVVSQHADETPFIHPAAIELCARKVAASSGDLRKALDICRHAIELAEREWKAQHDNTLSSVDIPRASIAHVVRATSAMSQSASARLKNLGLQQKAILCTLVVCEKTSLSVADVFEKYSSLCLRDRLIYPLTSSEFCDVANSLETLAIIRLRTKQRNGKPQDRIISLLVPEMDVITAVGDIGTLKRFFDRR
partner: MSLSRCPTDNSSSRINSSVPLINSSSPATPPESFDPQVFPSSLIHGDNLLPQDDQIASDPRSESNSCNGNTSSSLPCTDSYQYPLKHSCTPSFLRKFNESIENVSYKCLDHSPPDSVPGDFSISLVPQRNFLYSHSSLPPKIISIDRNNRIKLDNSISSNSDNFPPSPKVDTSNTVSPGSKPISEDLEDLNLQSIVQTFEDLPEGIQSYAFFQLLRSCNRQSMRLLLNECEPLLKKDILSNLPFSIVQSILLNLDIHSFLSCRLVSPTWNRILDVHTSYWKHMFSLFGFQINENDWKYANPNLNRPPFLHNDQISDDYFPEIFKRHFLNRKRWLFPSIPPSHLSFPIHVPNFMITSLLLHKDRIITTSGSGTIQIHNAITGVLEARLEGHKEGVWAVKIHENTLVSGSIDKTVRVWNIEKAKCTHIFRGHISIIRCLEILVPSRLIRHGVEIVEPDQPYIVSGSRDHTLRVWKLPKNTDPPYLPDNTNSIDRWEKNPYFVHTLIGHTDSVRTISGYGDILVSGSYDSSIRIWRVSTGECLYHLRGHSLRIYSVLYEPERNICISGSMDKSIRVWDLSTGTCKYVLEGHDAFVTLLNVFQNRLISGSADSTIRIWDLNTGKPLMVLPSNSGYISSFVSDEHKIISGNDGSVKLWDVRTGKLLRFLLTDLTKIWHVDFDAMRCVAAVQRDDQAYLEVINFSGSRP

Variants of: B1
Details: with pop2_schpo pop2, O14170

effect of a mutation on the interaction | Variant
disrupting interaction | T4A;T10A;T46A;T60A;T101A;T104A
